How the values were obtained:
Experiment in all cases: site-directed spin labelling EPR
[1] = molecular target: SET/TAF-Iβ D260C mutant, MTSL spin-labelled (UniProt Q01105-2 1-277, D260C, MTSL nitroxide spin label on Cys260)
[2] = molecular target: SET/TAF-Iβ D226C mutant, MTSL spin-labelled (UniProt Q01105-2 1-277, D226C, MTSL nitroxide spin label on Cys226)
[3] = molecular target: SET/TAF-Iβ E243C mutant, MTSL spin-labelled (UniProt Q01105-2 1-277, E243C, MTSL nitroxide spin label on Cys243)

Measured: binding result

B1: wild-type cytochrome c (natural protein)
chain: not shown
modifications: heme group (assembled by co-expressed yeast heme lyase); reduced state in ITC and EPR
binds: all assays above

— paper PMC11301353 (iScience, 2024)
